In experiment [1] the target is pMMO monomer consisting of PmoA, PmoB, and PmoC (Methylococcus capsulatus (Bath) (endogenous in M. capsulatus (Bath))) (UniProt Q607G3). Description: cryo-EM structure; cryoET with subtomogram averaging of isolated M. capsulatus (Bath) membranes, no detergent; 25 mM PIPES pH 7.3, 250 mM NaCl; single trimer 4.8 Å, 7-particle unit 10 Å, three trimers 12 Å; 3-fold symmetry applied.

The target of experiment [2] is particulate methane monooxygenase (pMMO) trimer (Methylococcus capsulatus (Bath) (endogenous in M. capsulatus (Bath))) (UniProt Q607G3).

Some results are limits rather than exact numbers.

The stoichiometry N is the number of molecules, sites or subunits per partner or assembly.

Take “pMMO monomer consisting of PmoA, PmoB, and PmoC (from UniProt Q607G3 1-247; G1UBD1 33-414) (complex)”: the stoichiometry N in experiment [1] worked out at 3.

The substance “particulate methane monooxygenase (pMMO) trimer (from UniProt Q607G3 1-247; G1UBD1 33-414) (complex)” showed a methane oxidation activity of SEC fractions with larger pMMO nanodisc arrays against single particle nanodiscs (13C-methanol by GC/MS, duroquinol reductant, 45 °C) in experiment [2] below 3 fold.

Values taken from publication PMC9445010.
